To fix the notation:
T1: recombinant human cANGPTL4 (C-terminus fibrinogen-like signaling peptide of angiopoietin-like 4) (human, UniProt Q9BY76 166-406)
T1 construct: also called C-terminus of ANGPTL4
T1 sequence: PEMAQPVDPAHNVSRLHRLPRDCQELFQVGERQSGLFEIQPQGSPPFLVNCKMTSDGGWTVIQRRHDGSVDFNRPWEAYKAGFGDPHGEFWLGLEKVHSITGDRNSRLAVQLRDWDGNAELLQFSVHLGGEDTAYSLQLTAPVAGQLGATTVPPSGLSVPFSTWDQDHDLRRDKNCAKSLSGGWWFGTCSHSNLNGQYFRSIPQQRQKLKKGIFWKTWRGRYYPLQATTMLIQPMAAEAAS

B1: Ab-A, monoclonal rat-anti-human cANGPTL4 antibody (antibody, V domains shown)
VH: QVQLKESGPGLMQPSETLSLTCTVSGFSLTTNGVGWVRQPLGKGLVWMGTIWAGGSTNYNSAVQSRLSISRDTSKSQVFLKMNSLQPEDTGTYYCARQPFYYYDGIHYTRGYFDYWGQGVMVTVSS
VL: DVQMTQSPYNLAASPGESVSINCKASKSISKYLAWYQQKLGKANKLLIYDGSTLQSGIPSRFSGSGSGTDFTLTIRSLEPEDFGLYYCQQHNEYPATFGGGTKLELK
B2: Ab-E, monoclonal rat-anti-human cANGPTL4 antibody (antibody, V domains shown)
VH: EVQLVESGGGLVQPGRSMKLSCAASGFTFSSFAMAWVRQAPTKGLEWVASISYDGGNTYYRDSVKGRFTISRDNAKSSLYLQMDSLRSEDTSTYYCASADLIWWYFDFWGPGTMVTVSS
VL: DIQMTQSPASLSASLEEIVTITCQASQDIGNWLAWYQQKPGKSPQLLIYGSTSLADGVPSRFSGSRSGTQYSLKISRLQVEDIGIYYCQQASSAPPTFGAGTKLELK
B3: Ab-B, monoclonal rat-anti-human cANGPTL4 antibody (antibody, V domains shown)
VH: EVQLVESGGGLVQPGRSLKLSCAASGFTFSNYGMAWVRQTPTKGLEWVASISTGGSDTYYRDSVKGRFTISRDNAKNTQYLQMDSLRSEDTATYYCARQGFTEDTDYWGQGVMVTVSS
VL: DIQMTQSPSFLSASVGDRVTINCKASQNINKYLNWYQQKLGEAPKRLIYNTNNLQTGIPSRFSGSGSGTDYTLTISSLQPEDFATYFCLQHNSFPGTFGGGTKLELK
B4: Ab-C, monoclonal rat-anti-human cANGPTL4 antibody (antibody, V domains shown)
VH: EVQLVDSGGGLVQPGRSLKLSCAASGFTFSNYGMAWVRQIPTKGLEWVASISSGGGNTYYRDSVKGRFTISRDNAKNTQYLQMDSLRSEDTATYYCARDPGITGFDYWGQGVMVTVSS
VL: B3 VL with N53T, G100P, K103T
B5: Ab-D, monoclonal rat-anti-human cANGPTL4 antibody (antibody, V domains shown)
VH: B4 VH with D6E, I40T, S53T, P100S, G101T, I102V, T103D, G104Y
VL: B3 VL with N28K, Y71F, F87C
notes: also called Antibody Ab-D

Positions count from the first letter of the chain named.

The first test concerns the target T1, recombinant human cANGPTL4 (C-terminus …). Nature of the test: direct ELISA of hybridoma supernatants. (In an ELISA, binding on a coated surface is turned into a signal by an enzyme label.)
For B1, the binding result is listed as “binds”.

For a further test the target is unchanged. Nature of the test: SPR (Reichert 2SPR), purified recombinant human cANGPTL4. The protocol: The kinetic binding parameters and affinity of the purified antibodies was determined by surface plasmon resonance (SPR) using Reichert 2SPR machine (Reichert Technologies) and purified recombinant human cANGPTL4 (Table 2).
A word on the Kd: it is a measure of binding affinity in units of concentration. What is called koff is the first-order rate constant of dissociation. Broadly, the kon is a measure of how fast the partners come together. In the case of B2, the Kd worked out at 3740 pM, the koff was 8.07e-05 s⁻¹ and the kon came to 21500 M⁻¹ s⁻¹.
In the case of B3, the equilibrium dissociation constant (Kd) is 132 pM, the koff was 3.69e-05 s⁻¹ and the association rate constant (kon) is 269000 M⁻¹ s⁻¹.
On the same counts, the results for B4 are 199 pM, 1.35e-05 s⁻¹ and 67800 M⁻¹ s⁻¹.
For B5 the same measures were 480 pM, 3.89e-05 s⁻¹ and 81100 M⁻¹ s⁻¹.

The values are drawn from patent publication US20220389088A1 (UNIVERSITY OF FLORIDA RESEARCH FOUNDATION, published 2022).
